Values quoted from earlier work as cited in article PMC3583350.

Biological target: FcεRIα ECD (Homo sapiens) (UniProt P12319)
UniProt P12319, sequence (P12319 26-205): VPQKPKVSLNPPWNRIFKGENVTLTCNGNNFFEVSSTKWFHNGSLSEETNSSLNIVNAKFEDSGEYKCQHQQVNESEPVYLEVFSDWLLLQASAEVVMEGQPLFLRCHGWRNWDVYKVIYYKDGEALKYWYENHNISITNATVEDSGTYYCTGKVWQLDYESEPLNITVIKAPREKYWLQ

## IgE-Fc Fc (from UniProt P01854)
  Kd: 1 nM
